Reference: a protein production outcome set (Wang et al. 2014)

Experiment: label from the status in PepcDB records

For “SEKLAASTEPQGPRPVLGRESVQVPDDQDFRSFRSECEAEVGWNLTYSRAGVSVWVQAVEMDRTLHKIKCRMECCDVPAETLYDVLHDIEYRKKWDSNVIETFDIARLTVNADVGYYSWRCPKPLKNRDVITLRSWLPMGADYIIMNYSVKHPKYPPRKDLVRAVSIQTGYLIQSTGPKSCVITYLAQVDPKGSLPKWVVNKSSQFLAPKAMKKMYKACLKYPEWKQKHLPHFKPWLHPEQSPLPSLALSELSVQHADSLENIDESAVAESREERMGGAGGEGSDDDTSLT”, the protein production was “not failed”.
In the case of “MTQVIIDGDACPVTNSIIELTKGTGIFVTVVRSFSHFSTVIQPEHVNIIYVDDGPDAVDYRIVKLVHSDDLVVTQDYGLASLLLNKAKIVMHHKGLEHHHHHH”, the protein production is reported as “failed”.
For “HRAQRQQMTVLRGDAQSIDIIDLQTFIDSFEEHIWVKNTEGVYTICNQSVEKAWDLPRSDIVGKTDEDLFGKAIADIFLNGDRLAIEAGAPIIVAECLDGENKNNHLWLETLKLPALTPDGELAGVIGMTRNISKHKEVEEQLTLATNVFKHSF”, the protein production was “failed”.
For “ERATPPVEPRQPPEAQPAERIVAERIVQELVRAGANLNNVRTMLRNVMDNNAVAFSRVEWNILLQHFPDMHTNGISSDSVLANELRQTLRQVVHQQRTQRALAPILSPAPSRPVASSSRSSQRTLLGRFTGWMAPRQTSSSSQAT”, the protein production was “failed”.
With “MNSKIMYHIFPDRFHRYGEDRPGLIKWGEKPSRDSFFGGNLEGIRQKIQYIKDLRVDHIYLNPLFKSKSNHRYDVDDYYSIDELLGTDQDLKNLVSDAHASGIKIVLDMVFNHTSTDFPAFRDVIEKGRNSPYYRWYIFHRDEFTVFRGRGKRGSYPSYETFMGYGGMPKLDHRNPEVRRYCINVLKYYVQKFDVDGFRYDVAHSIYSKFFEEVFSEIGTGILHIGEAWCLPTYLVNGSAWQSYTNYFLGGSIIDFLKGSITLGEFYDRVQRMLIVNGIEKQQAMMNVLDSHDTPRILRILNGDRKKVKLAYSILYLFDGIATIYYGDEVGLDGGKDPDDRRCFPWDSMDEDMHSFFMNLGDLREKYSLGSALEHHHHHH” the protein production was “failed”.
For “MDAVKKAILGEVLEEEEAYEVMRALMAGEVSPVRAAGLLVALSLRGERPHEIAAMARAMREAARPLRVHRRPLLDIVGTGGDGKGLMXLSTLAALVAAAGGVAVAKHGXRAASSRAGSADLLEALGVDLEAPPERVGEAIEELGFGFLFARVFHPAMRHVAPVRAELGVRTVFXLLGPLTXPAGADAYVLGVFSPEWLAPMAEALERLGARGLVVHGEGADELVLGEXRVVEVGKGAYALTPEEVGLKRAPLEALKGGGPEEXAALARRLLKGEEKGPLADAVALAAGAGFYAAGKTPSLKEGVALAREVLASGEAYLLLERYVAFLRA”, the protein production was “not failed”.
For “MPRPLVDEVRFLRSWIEKPLHMGAVMPSGKLLARTMARYVDIQSDGPVIELGPGTGAITNALVEHGVDQKRLVLLEFDPGFCALLRERFPLAKVVQGDAYRLRDSLWDALEIPATAVVSGLPLVTKPMLTRMKLIRDAFTLLEPGAPFVQFTYSVAPPIPKSLPGVSTEGSERIWMNVPPARVWVYRKRLEHHHHHH”, the protein production was “not failed”.
In the case of “MLQTLYTIILYLIQPLIWIRLWLRGRKAPAYRRRWGERYGFCAEKVKPDGIMLHSVSVGETLAAIPLVRALRHRYPNLPITVTTMTPTGSERVRSAFGDTVYHVYLPYDLPCALKRFFDQVRPKIVIIMETELWPNLIAELHKREIPLVIANARLSERSAAGYKKIGKLMRHILQRITLVAAQNQEDGNRFIALGLKRSSLKVTGSLKFDISVTPELAARAITLRRQWAPHRPVWIATSTHEGEEAIVLAAHRRLLATYPDLLLILVPRHPERFSTTQALAESMGFNYTLRSSGEQPSANTQVVIGDTMGELMLLYGIADLAFVGGSLVERGGHNPLEAAAHAIPVLMGPHTFNFKDICNKLDQADGLITVTDADSLGKEVGKLLADEDYRLYYGRHAVEVLHQNQGALQMLLTLLEPYLPQRTQLEHHHHHH”, the protein production is reported as “not failed”.
For “MIVVTGATGNIGRPLTRALAEAGEQVTAVSRHPAAVPDGVRHLVADLAEPAGLRPALTGAKSLFLLLSGDLHALGANPADLIGEAARSGVRRVVLLSTLGVVTRPFGATRIAMRELEDTLRESGLEWAVLRPGGFASNALWWAESVRARRVVAAPFGDVGVPVVDPADIAAVAAACLLEDRHTGGAYELTGPEVITPRGQTEAIAAALGAPVAFHELTREEARTAMARSMPAELADDTLDILGNPSPAELRVSPDIERVLGRAPRPFADWAARNADAFR”, the protein production was “failed”.
For “TAMRVSPHHPAPTPNPRASLNHSTAFNPQPQSQMQDTRQIQPSPPWSYDQSYQYLGSIASPSVHPATPISPGRASGMTTLSAELSSRLSTAPDLTAFSDPRQFPALPSISDP”, the protein production was “failed”.
For “MPLSTSDNIAAVIVTHKRVELLRASLEVVAAQTHPVKWIIVVDNGCEDAVRDLLHSVAGDRGIYLPSHTNLGGAGGFAYGFLTALALGADAIWCADDDGRPEGPQVLATLIDAAVTHQLDEVSPVVCNMDDPNRLAFPLRRGLEWRRYRSELIDPNNPSDTLLPGIASLFNGALISAAAMERIGVPDLRLFIRGDEVEYHRRLVRSGLNFGTCLTTAYLHPDGSDEFKPILGGRMHTQYPASDAKRYFTYRNRGYLMNQPGMRRLLPQEYARFAWFFLIQRRDPRGFLEWFKLHQLGRSEKFERPLEHHHHHH”, the protein production was “failed”.
With “MTSSSPPAIPADARRQHAERTTLVSAAVNCALSAGQIAAGLWSHSQGLVADGLHTLSDLIADGIVFIANRNSHKGPDEDHQYGHARYENAASLGLGLLLMAAGAGMIWSALASLSAPHGAAPVHGLALWVALAALAAKEGLFRYMLAVARRIGSRMLVANAWHARSDAVSSLVAAVGVAGNLMGFRWLDPVAACVVGAMIGRVGIRFGWEALNDLMDRALPPAQVQAIRASLAATPGVINVHDLRTRVTGDQALVDAHIEVDPRVSVSEGHAIAVRARANVLAAHTAMAVLDVQLHVDPRERVYTDPLPLPDRDALCAVLAQALPPGTPLDARHCLLHYVEGGVEVDLILPPSLADHAAPVAETVRARWHGRVRLRALTAASGATARGPVRP” the protein production was “failed”.
For “MKIGIVIPAHNEEQHLSACLQSIQQAIQHTGHEQVEILVVLDSCTDQSRSVVESHQVNWIECNFACVGKARDLGIRQLIDQGVIWVACTDADTIVDSDWILCQMLHQPTDAICGVVTLDDLSHLSVQQQQKYLAHYQDSMDHQHIHGANLSFSAEAYIQAGGFEPIPCHEDVSLIEKFIKQCCKVTRSNLVRVTTSSRLNGRAPEGLSYFLKHL”, the protein production was “failed”.
For “MSGEGDTTLKAICYKPGSLQLLDQRKLPLETIYLEIRDASDGWSAIQEMVVRGAPAIAIAAALSLAVEVFNFHGFDGSASDAVAFLENKLDYLVSSRPTAVNLADAALKLKHVIAKALATATEAKSIFKAYIEASEDMLEDDVVSNKAIGNFGLSLLRQQAKNPDKLSVLTHCNTGSLATAGYGTALGVIRALHTQGILERAYCTETRPFNQGSRLTAFELVHEKIPATLIADSAAAALMKDGRVDGVIVGADRVASNGDTANKIGTYSLALCAKHHGIPFYVAAPLTSVDLSLSSGKEIVIEERSPKELMHTHGGLGERIAAPGISVWNPAFDMTPAELIAGIITEKGVITKNGNDTFDISSFAKKITGNSSR”, the protein production was “failed”.
In the case of “MSSKPLLTLQELAAQNILRNEALAISALQYLPELFLPQLLKQAYDGNHLKVLRAIVSSWPFPRLPLGALKKRTPYLETQLQVVLEEVDKLLIQEVHPREYKLEVLDLRSVGQNYLNVWPGAMDDWLPKTTQTDPCCSKTVMTQPLKVLVDLQLNNRGQSRLFSYLVQWSDRRKGLLQLYCNKLQIWSPSQQNYRKLSQKVNLDYVETLGLHSSCSPSFLLNFAPYLRQMRNLRKLALSNIREEHIISPEKRRCIITRFTLQILKLESLQKLHLDAVCFLEGHLDQLLGSVKTSLDELAVTHCNLSVSEWSHFSEFPCVSQLQQLNLENVRLTGLSPEPLQVLLVKAGPTLVALDLEDCHLEDGQLYAILPALSKCFKLTKFSFYGNQISMLAMKDLLHHTASLIHLRLELYPVPQDSYDYHGTPLMQRMQQHCDELMNLLKTFRNPGRVFFGTDRCDQCCNRYIYNKTIMCNCRRSY”, the protein production is reported as “failed”.
